Assay results reported in patent publication US20020037286A1 (published 2002).

T1: zyxin (endogenous, Jurkat T-cells) (human, UniProt Q15942 2-572)
T1 sequence (looked up): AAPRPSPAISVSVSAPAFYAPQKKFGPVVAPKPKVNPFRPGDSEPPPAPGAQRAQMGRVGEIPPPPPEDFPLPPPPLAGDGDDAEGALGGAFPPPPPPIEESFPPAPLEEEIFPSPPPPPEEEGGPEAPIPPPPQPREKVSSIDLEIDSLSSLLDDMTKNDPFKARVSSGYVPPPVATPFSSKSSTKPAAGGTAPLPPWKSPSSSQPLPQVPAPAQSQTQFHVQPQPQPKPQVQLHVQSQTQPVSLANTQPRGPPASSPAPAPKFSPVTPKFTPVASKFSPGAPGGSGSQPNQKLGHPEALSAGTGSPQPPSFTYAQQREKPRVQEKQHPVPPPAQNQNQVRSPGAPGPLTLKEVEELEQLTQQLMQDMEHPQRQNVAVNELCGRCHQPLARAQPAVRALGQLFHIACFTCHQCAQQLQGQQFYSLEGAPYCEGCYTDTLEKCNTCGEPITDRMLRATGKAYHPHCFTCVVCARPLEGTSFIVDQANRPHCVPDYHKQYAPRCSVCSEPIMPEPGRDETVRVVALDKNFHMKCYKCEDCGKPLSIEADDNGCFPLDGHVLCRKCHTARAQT

B1: WASP (endogenous, Jurkat T-cells) (other, human, UniProt P42768 2-502, looked up)
chain: SGGPMGGRPGGRGAPAVQQNIPSTLLQDHENQRLFEMLGRKCLTLATAVVQLYLALPPGAEHWTKEHCGAVCFVKDNPQKSYFIRLYGLQAGRLLWEQELYSQLVYSTPTPFFHTFAGDDCQAGLNFADEDEAQAFRALVQEKIQKRNQRQSGDRRQLPPPPTPANEERRGGLPPLPLHPGGDQGGPPVGPLSLGLATVDIQNPDITSSRYRGLPAPGPSPADKKRSGKKKISKADIGAPSGFKHVSHVGWDPQNGFDVNNLDPDLRSLFSRAGISEAQLTDAETSKLIYDFIEDQGGLEAVRQEMRRQEPLPPPPPPSRGGNQLPRPPIVGGNKGRSGPLPPVPLGIAPPPPTPRGPPPPGRGGPPPPPPPATGRSGPLPPPPPGAGGPPMPPPPPPPPPPPSSGNGPAPPPLPPALVPAGGLAPGGGRGALLDQIRQGIQLNKTPGAPESSALQPPPQSSEGLVGALMHVMQKRSRAIHSSDEGEDQAGDEDEDDEWDD

Tests used:
[1] = biological target: Arp2/3 complex (endogenous, Jurkat T-cells); assay: cell-based or functional assay
[2] = biological target: Ena/VASP proteins; assay: cell-based or functional assay
[3] = biological target: T1, zyxin (endogenous, Jurkat T-cells); assay: co-immunoprecipitation from Jurkat T-cell lysate with WASP mAb 67B4, blot probed with zyxin mAb
Experimental: After quick pelleting, stimulated and control cells were resuspended and incubated in DMEM/HEPES containing 15 λg/ml goat anti mouse IgG antibodies at 37° C. for 2 min. Jurkat NP-40 lysates were prepared at 1×10⁸ cells/ml in ice cold NP-40 lysis buffer (1% (v/v) NP-40, 150 mm NaCl, 10 mM Tris-Cl pH 7.8) supplemented with 60 μg/ml chymostatin, 10 g/ml pepstatin, 5 μg/ml leupeptin, 2 μg/ml aprotinin, 2 mM Pefabloc (Roche Diagnostics), 1 mM Na₃VO₄, and 10 mM NaF. […] Immunoprecipitations were carried out according to standard protocols using 0.2 ml of Jurkat NP-40 lysates derived from 2×10^7 cells.
Immunoprecipitates were resolved by SDS-PAGE. As positive control, Jurkat E6-1 lysates were used.

| Molecule | length of the contact zone between the beads and Jurkat T-cells [1] [µm] | length of the contact zone between Jurkat T-cells and anti CD3-coated beads [2] [µm] | also measured |
| --- | --- | --- | --- |
| myc-tagged ScarW (from UniProt Q92558 443-543) | 5 | – | – |
| GFP-ActA-Repeats F>A | – | 5.16 | – |
| GFP-ActA-Repeats | – | 3.84 | – |
| myc-tagged ScarWA (from UniProt Q92558 443-559) | 3.16 | – | – |
| B1 | – | – | binding result [3]: no binding |
